Assay results published in patent publication US20240166765A1 (ICONIC THERAPEUTICS, published 2024).

Experiments:
[1] = biological target: T1, pig TF ECD-His (pig TF-His) protein (pig (Sus scrofa)); experiment: Biacore, antibody captured by anti-human IgG on CM5 chip, pig TF-His as analyte, 1:1 model
T1 construct: Extracellular domain with a C-terminal TG-His6 tag, used as analyte in Biacore; also called pTF
T1 chain: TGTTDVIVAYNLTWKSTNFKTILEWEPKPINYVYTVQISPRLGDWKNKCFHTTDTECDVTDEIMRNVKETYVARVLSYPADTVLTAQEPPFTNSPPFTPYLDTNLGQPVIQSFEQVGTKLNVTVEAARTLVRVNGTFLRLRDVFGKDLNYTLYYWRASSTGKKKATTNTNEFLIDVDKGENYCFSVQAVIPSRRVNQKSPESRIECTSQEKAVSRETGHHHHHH

[2] = biological target: human Tissue Factor (hTF), endogenously expressed on human TF-positive cells (human, UniProt P13726 33-295); experiment: cell-based or functional assay
[3] = biological target: T2, cynomolgus TF ECD-His6 (cynomolgus monkey (Macaca fascicularis)); experiment: SPR (Biacore), antibody on chip, TF-His titrated
T2 construct: made in Expi293 cells; also called TF-His; cTF
T2 chain: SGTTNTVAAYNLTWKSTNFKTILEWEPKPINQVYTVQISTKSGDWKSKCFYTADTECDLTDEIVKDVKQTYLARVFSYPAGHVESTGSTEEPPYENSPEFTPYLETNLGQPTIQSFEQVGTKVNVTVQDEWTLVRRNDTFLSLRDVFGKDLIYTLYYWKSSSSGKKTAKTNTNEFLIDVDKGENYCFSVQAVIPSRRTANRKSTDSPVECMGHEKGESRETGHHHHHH

[4] = biological target: T3, mouse TF ECD-His6 (mouse, UniProt P20352 29-251); experiment: SPR (Biacore), antibody on chip, TF-His titrated
T3 construct: made in Expi293 cells; also called TF-His; mTF

[5] = biological target: T2, cynomolgus TF ECD-His6; experiment: BLI (ForteBio Octet)
[6] = biological target: T4, human TF ECD-His6 (human, UniProt P13726 33-251); experiment: BLI (ForteBio Octet)
T4 construct: made in Expi293 cells; the entry holds the ECD with the C-terminal TG-His6; also called TF-His; hTF

[7] = biological target: T3, mouse TF ECD-His6; experiment: BLI (ForteBio Octet)
[8] = biological target: T5, hTF_K149N (human, UniProt P13726 33-251); experiment: live cell staining of transfected HEK293, flow cytometry
T5 construct: the entry already holds K149N; on transfected HEK293 cells; not shown: transmembrane and cytoplasmic part of the construct expressed on HEK293 cells
T5 chain: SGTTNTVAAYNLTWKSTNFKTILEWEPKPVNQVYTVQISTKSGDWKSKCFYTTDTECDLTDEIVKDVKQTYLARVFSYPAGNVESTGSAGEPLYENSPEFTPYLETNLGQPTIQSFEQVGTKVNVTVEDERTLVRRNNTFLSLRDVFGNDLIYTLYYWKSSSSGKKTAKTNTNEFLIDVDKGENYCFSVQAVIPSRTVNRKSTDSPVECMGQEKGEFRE

[9] = biological target: rTF (rat TF) on HEK293 cells (rat, UniProt P42533 29-252); experiment: as above
[10] = biological target: T6, hTF_N171H_T197K (human, UniProt P13726 33-251); experiment: as above
T6 construct: the entry already holds N171H and T197K; on transfected HEK293 cells
T6 chain: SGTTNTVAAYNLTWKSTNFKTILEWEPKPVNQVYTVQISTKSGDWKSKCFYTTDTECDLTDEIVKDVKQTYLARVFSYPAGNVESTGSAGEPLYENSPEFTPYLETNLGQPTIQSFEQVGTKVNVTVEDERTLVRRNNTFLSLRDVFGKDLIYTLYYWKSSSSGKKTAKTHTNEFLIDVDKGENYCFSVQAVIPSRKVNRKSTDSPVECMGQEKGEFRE

[11] = biological target: T4, human TF ECD-His6; experiment: SPR (Biacore), antibody on chip, TF-His titrated

B1: anti-TF antibody 25G9 (antibody, human IgG1, kappa, V domains shown)
VH: QVQLVQSGAEVKKPGASVKVSCKASGYTFRSYGISWVRQAPGQGLEWMGWVAPYSGNTNYAQKLQGRVTMTTDTSTSTAYMELRSLRSDDTAVYYCARDAGTYSPYGYGMDVWGQGTTVTVSS
VL: DIQMTQSPSTLSASVGDRVTITCQASQSIDSWLAWYQQKPGKAPKLLIYSASYLESGVPSRFSGSGSGTEFTLTISSLQPDDFATYYCQRFQSLPPFTFGGGTKVEIKR
notes: Human IgG1
[1]
  Kd: 3.31 nM
[2]
  % GM-CSF, 2.56 nM antibody, MDA-MB-231 cells + FVIIa: 60%
  % GM-CSF, 6.4 nM antibody, MDA-MB-231 cells + FVIIa: 34%
  % GM-CSF, 16 nM antibody, MDA-MB-231 cells + FVIIa: 26%
  % GM-CSF, 40 nM antibody, MDA-MB-231 cells + FVIIa: 26%
  % GM-CSF, 100 nM antibody, MDA-MB-231 cells + FVIIa: 25%

B2: 25G1 (antibody, human IgG1, kappa, V domains shown)
VH: QVQLVQSGAEVKKPGASVKVSCKASGYTFRSYGISWVRQAPGQGLEWMGWVAPYSGNTNYAQKLQGRVTMTTDTSTSTAYMELRSLRSDDTAVYYCARDAGTYSPYGYGMDVWGQGTTVTVSS
VL: DIQMTQSPSTLSASVGDRVTITCRASHSIDSWLAWYQQKPGKAPKLLIYKASYLESGVPSRFSGSGSGTEFTLTISSLQPDDFATYYCQLFQSLPPFTFGGGTKVEIKR
notes: human IgG1
[3]
  Kd: 0.78 nM
[4]
  Kd: 5.4 nM
[5]
  Kd: 4.99 nM
[6]
  Kd: 3.97 nM
[7]
  Kd: 34.2 nM
[8]
  binding result: no binding
[9]
  binding result: no binding (tested: 15 µg/ml (100 nM))
[10]
  binding result: no binding

B3: 25A (antibody, human IgG1, V domains shown)
VH: QVQLVQSGAEVKKPGASVKVSCKASGYTFDVYGISWVRQAPGQGLEWMGWIAPYNGNTNYAQKLQGRVTMTTDTSTSTAYMELRSLRSDDTAVYYCARDAGTYSPFGYGMDVWGQGTTVTVSS
VL: DIQMTQSPSTLSASVGDRVTITCRASQSISSWLAWYQQKPGKAPKLLIYKASSLESGVPSRFSGSGSGTEFTLTISSLQPDDFATYYCQQFQSLPPFTFGGGTKVEIK
notes: human IgG1
[3]
  Kd: 5.42 nM
[11]
  Kd: 6.2 nM
[5]
  Kd: 7.65 nM
[6]
  Kd: 8.45 nM
[7]
  Kd: 263 nM
[8]
  binding result: no binding
[9]
  binding result: no binding (tested: 15 µg/ml (100 nM))
[10]
  binding result: no binding

B4: 25G9 (antibody, human IgG1, kappa, V domains shown)
VH: QVQLVQSGAEVKKPGASVKVSCKASGYTFRSYGISWVRQAPGQGLEWMGWVAPYSGNTNYAQKLQGRVTMTTDTSTSTAYMELRSLRSDDTAVYYCARDAGTYSPYGYGMDVWGQGTTVTVSS
VL: DIQMTQSPSTLSASVGDRVTITCQASQSIDSWLAWYQQKPGKAPKLLIYSASYLESGVPSRFSGSGSGTEFTLTISSLQPDDFATYYCQRFQSLPPFTFGGGTKVEIKR
notes: human IgG1
[3]
  Kd: 16.4 nM
[11]
  Kd: 13.3 nM
[4]
  Kd: 2.9 nM
[5]
  Kd: 42.9 nM
[6]
  Kd: 35.8 nM
[7]
  Kd: 9.16 nM
[8]
  binding result: no binding
[9]
  binding result: no binding (tested: 15 µg/ml (100 nM))
[10]
  binding result: no binding

B5: anti-TF antibody 43D8 (antibody, human IgG1, kappa, V domains shown)
VH: QVQLQQWGAGLLKPSETLSLTCAVYGGSLSGYYWSWIRQPPGKGLEWIGEIGASGSTRYNPSLKSRVTISVDTSKNQFSLKLSSVTAADTAVYYCARDTPYYYEGGYYYYMDVWGKGTTVTVSS
VL: EIVLTQSPGTLSLSPGERATLSCRASQSVSSSFLAWYQQKPGQAPRLLIYGAYSRATGIPDRFSGSGSGTDFTLTISRLEPEDFAVYYCQQAGVVPYTFGGGTKVEIKR
notes: Human IgG1
[1]
  Kd: 12.9 nM
[2]
  % GM-CSF, 2.56 nM antibody, MDA-MB-231 cells + FVIIa: 57%
  % GM-CSF, 6.4 nM antibody, MDA-MB-231 cells + FVIIa: 24%
  % GM-CSF, 16 nM antibody, MDA-MB-231 cells + FVIIa: 11%
  % GM-CSF, 40 nM antibody, MDA-MB-231 cells + FVIIa: 11%
  % GM-CSF, 100 nM antibody, MDA-MB-231 cells + FVIIa: 12%
